The text below walks through data of publication PMC8582585, “An HLA-A*11:01-Binding Neoantigen from Mutated NPM1 as Target for TCR Gene Therapy in AML” (Cancers, 2021).

Peptide text beside a SMILES is read from it.

One assay addresses T1, HLA-A*11:01 (HLA-A11) (Homo sapiens, UniProt P04439, A114D/D185E/E176A/F33Y/L180Q/S129P/T187R).
T1 construct: soluble HLA molecules mixed with a fluorescein-labeled peptide; made in house; host or cells: Escherichia coli
Briefly: Competition-based peptide-HLA class I binding assay, HLA-A11.

A further assay deals with T2, HLA-A*03:01 (HLA-A3) (Homo sapiens, UniProt P04439).
T2 construct: soluble HLA molecules mixed with a fluorescein-labeled peptide; made in house; host or cells: Escherichia coli
In words: Competition-based peptide-HLA class I binding assay, HLA-A3.

The next assay concerns the target HLA-A*02:01 (HLA-A2) (Homo sapiens, UniProt P04439, D140Y/D185E/D98H/E176V/E277Q/G131W/G231S/I119V/I121R/I166T/I218V/L300P/L318F/N151K/N90K/P208A/P217A/Q86G/Q94H/R138H/R169H/T345S). Conditions: cited from earlier work. An excerpt: In this study, we investigated whether […] is also a neoantigen that can be targeted by TCR gene therapy. We isolated various T-cells for […] and cloned the TC ...

Assay [1] has as its target soluble HLA-A*03:01 (heavy chain with β2M). Briefly: competition-based peptide-HLA class I binding assay (gel-filtration HPLC with fluorescence detection); 25 pmol HLA heavy chain, 25 pmol β2M, 100 fmol KVFPC(Fl)ALINK and 10-fold serial dilutions of competitor peptide in 100 µL; 100 mM phosphate, 75 mM NaCl, 1 mM CHAPS, pH 7; 24 h at RT; IC50 = 50% reduction of the fluorescent pHLA-complex peak.

The target in assay [2] is soluble HLA-A*11:01 (heavy chain with β2M). Described as above.

Regarding `CC(C)C[C@H](NC(=O)[C@H](CO)NC(=O)[C@@H](NC(=O)[C@H](CCC(=O)O)NC(=O)[C@H](CCC(=O)O)NC(=O)[C@@H](NC(=O)[C@H](C)N)C(C)C)C(C)C)C(=O)N[C@@H](CCCNC(=N)N)C(=O)N[C@@H](CCCCN)C(=O)O` (H-AVEEVSLRK-OH), the IC50 (usually the concentration that gives 50% inhibition) at HLA-A*11:01 (HLA-A11) was 50.9 nM; on HLA-A*03:01 (HLA-A3), 1330 nM.
Turning to CLAVEEVSL, in the assay with HLA-A*02:01 (HLA-A2), the HLA-A2 binding result is reported as “HLA-A*02:01 (HLA-A2)-binding”.
With AVEEVSLRK [dNPM1 … peptide], the concentration for half-maximal inhibition (IC50) was determined as 1330 nM in assay [1] and 50.9 nM in assay [2].
